Test results: patent US20150030609A1, “DIAGNOSIS AND TREATMENT OF TRAUMATIC BRAIN INJURY” (UNIVERSITY OF SOUTH FLORIDA, priority 2011, published 2015)
Entries after “also recorded” stand apart in the source; their conditions may differ.

Columns and labels:
[1] = tested on: primary oligodendrocyte (OL) cultures; assay: LDH assay of cell death in primary oligodendrocyte cultures exposed to normoxia or OGD with recombinant CCL20; type: cell-based, rat
Description: Mixed glial cultures were prepared from postnatal day 2 rats and oligodendrocytes (OL) cultures were purified using the shaking and differential adherence method as previously described (26). Cell preparations were seeded (1.5×10^7) into flasks, OLs were purified from these preparations after 8 DIV and plated onto glass poly-l-lysine-treated coverslips. Following a 7 day proliferation period, the PDGF-AA was withdrawn for 5 days to induce OL differentiation into the mature phenotype. Experiments were conducted within three weeks.
Primary cells previously seeded onto glass coverslips were randomly assigned to one of five conditions: OGD (DMEM without glucose)+vehicle, OGD+CCL20 (200 ng; Rad Systems, Minneapolis, Minn.), normoxia (DMEM with glucose) only, normoxia+vehicle, or normoxia+CCL20. Cells undergoing OGD were placed in an airtight hypoxic chamber. The chamber was then flushed with hypoxic gas (95% N2, 4% CO2, 1% O2; Airgas, Tampa, Fla.) for 15 min and […] for the duration of exposure. Normoxic cells were maintained in a standard tissue culture incubator. Cultures were subjected to OGD or normoxia for 24 h at 37° C. The medium from each well was collected, clarified by centrifugation, and lactate dehydrogenase (LDH) analyzed immediately.
Cell death in culture was determined using the lactate dehydrogenase (LDH) assay (Takara Bio, Inc., Madison, Wis.). Briefly, 100 μl of tissue culture medium from each experimental group was added to a 96-well plate and 100 μl of LDH reagent was added to each well. Plates were incubated for 30 min at 25° C. and absorbances were read on a microplate reader at a 548 nm wavelength. The absorbance of medium only wells was subtracted from the total absorbance of each experimental treatment group to control for background LDH activity.
Briefly, rat primary neurons or OLs were exposed to normoxia or OGD in the presence of 200 ng recombinant CCL20 or vehicle. Following the exposure, culture medium was collected and the LDH assay was performed to assess cellular death.

[2] = tested on: primary neuronal cultures; assay: LDH assay of cell death in primary neuronal cultures exposed to normoxia or OGD with recombinant CCL20; type: cell-based, rat; conditions: 200 ng recombinant CCL20, 24 h
Description: Cortices from E18 rat embryos were dissociated with a solution of 0.25% trypsin/2.21 mM EDTA for 10 min at 37° C. The solution was triturated to obtain a uniform single cell suspension. After centrifugation, the supernatant was aspirated off and the cells were re-suspended in DMEM (Mediatech, Mannasas, Va.). Trypan blue exclusion was used to count viable cells and 3×10^5 cells in a final volume of 1 mL were seeded on 24 well poly-L-lysine treated culture plates. After 24 h, the medium was changed to neurobasal complete (neurobasal medium (Invitrogen), B-27 (Invitrogen), 0.05 mM L-glutamine (Mediatech) and cells were cultured for 7 days. Cells were used for oxygen glucose deprivation (OGD) experiments following one medium change, as determined by experimental grouping.
Primary cells previously seeded onto glass coverslips were randomly assigned to one of five conditions: OGD (DMEM without glucose)+vehicle, OGD+CCL20 (200 ng; Rad Systems, Minneapolis, Minn.), normoxia (DMEM with glucose) only, normoxia+vehicle, or normoxia+CCL20. […] The medium from each well was collected, clarified by centrifugation, and lactate dehydrogenase (LDH) analyzed immediately.
Cell death in culture was determined using the lactate dehydrogenase (LDH) assay (Takara Bio, Inc., Madison, Wis.). […] Plates were incubated for 30 min at 25° C. and absorbances were read on a microplate reader at a 548 nm wavelength. […]

Substance: CCL20: recombinant CC chemokine ligand 20 (CCL20, MIP-3α), purchased chemokine applied at 200 ng to cultured cells
- LDH release / cellular toxicity in OL cultures ([1]; normoxia, 200 ng recombinant CCL20, 24 h, vs normoxia without CCL20): elicited toxicity to OLs; also recorded: increased LDH release
- LDH release / cell death in OL cultures ([1]; oxygen glucose deprivation (OGD), 200 ng recombinant CCL20, 24 h, relative to OGD alone): significantly increased; also recorded: further enhanced OGD-induced cellular toxicity
- toxicity to cultured oligodendrocytes ([1]; summary statement, conditions not given): toxic to cultured oligodendrocytes
- LDH release / neuronal viability ([2]; normoxia): did not affect neuronal viability; also recorded: had no effect
- LDH release / cell death in neurons ([2]; oxygen glucose deprivation (OGD), relative to OGD alone): significantly increased; also recorded: increased lactate dehydrogenase (LDH) release
